Numbering of substitutions follows the chain as printed. Names may count otherwise.
Tests used:
[1] = target: T1, human tenascin-C rCd4-His-FBG (rat; human, UniProt P05540 207-392, limits assumed); experiment: SPR, 25 C
T1 construct: domain: domains 3 and 4; C-terminal FBG fusion; biotinylated in the ELISA and HTRF screens; also called Hu TNC; human TNC rCd4-His-FBG; not shown: 6His tag
T1 sequence (chain (part 1 of 2)): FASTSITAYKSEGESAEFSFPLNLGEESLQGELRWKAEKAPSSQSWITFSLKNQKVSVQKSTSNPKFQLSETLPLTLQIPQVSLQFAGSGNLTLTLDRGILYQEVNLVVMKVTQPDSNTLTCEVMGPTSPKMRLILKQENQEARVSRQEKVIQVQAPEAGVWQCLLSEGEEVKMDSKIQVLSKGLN
T1 sequence (chain (part 2 of 2)): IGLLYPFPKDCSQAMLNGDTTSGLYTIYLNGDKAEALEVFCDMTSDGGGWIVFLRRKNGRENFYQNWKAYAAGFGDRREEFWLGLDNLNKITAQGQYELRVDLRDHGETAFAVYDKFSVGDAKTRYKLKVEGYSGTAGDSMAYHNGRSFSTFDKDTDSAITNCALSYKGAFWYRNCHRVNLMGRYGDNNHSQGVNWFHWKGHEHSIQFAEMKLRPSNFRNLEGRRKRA

human Fc-His-FBG = target: T2, human Fc-His-FBG (human, UniProt P24821 1974-2201); experiment: cell-based or functional assay
T2 sequence: T1 sequence (chain (part 2 of 2))

[2] = target: T1, human tenascin-C rCd4-His-FBG; experiment: SPR, captured Fab, 25 C
Experimental: (§1) Experiments were performed using a BIAcore T100 instrument with CM5 sensor chip according to the protocol provided with the Human Fab Capture Kit (GE, 28-9583-25). […] After reference signal subtraction, the data was fitted to a global 1:1 fit using the T100 BIAevaluation software (FIGS. 6 a-d).

[3] = target: T3, mouse tenascin-C rCd4-His-FBG (rat; mouse, UniProt P05540 207-392, limits assumed); experiment: SPR, captured Fab, 25 C
T3 construct: domain: domains 3 and 4; C-terminal FBG fusion; biotinylated in the ELISA screen; also called Mu TNC; mouse TNC rCd4-His-FBG; not shown: 6His tag
T3 sequence (chain (part 1 of 2)): T1 sequence (chain (part 1 of 2))
T3 sequence (chain (part 2 of 2)): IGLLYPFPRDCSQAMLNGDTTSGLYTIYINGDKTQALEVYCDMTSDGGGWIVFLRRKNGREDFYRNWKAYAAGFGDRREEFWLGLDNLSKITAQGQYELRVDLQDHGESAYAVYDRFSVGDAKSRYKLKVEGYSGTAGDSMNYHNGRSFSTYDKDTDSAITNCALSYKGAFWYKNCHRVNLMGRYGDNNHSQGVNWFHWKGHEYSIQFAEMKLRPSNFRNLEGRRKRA
Experimental: as §1

[4] = target: T4, rat tenascin-C rCd4-His-FBG (rat, UniProt P05540 207-392, limits assumed); experiment: SPR, captured Fab, 25 C
T4 construct: domain: domains 3 and 4; C-terminal FBG fusion; also called Rat TNC; rat TNC rCD4-His-FBG; not shown: 6His tag
T4 sequence (chain (part 1 of 2)): T1 sequence (chain (part 1 of 2))
T4 sequence (chain (part 2 of 2)): T3 sequence (chain (part 2 of 2)) with A72T
Experimental: as §1

[5] = target: T5, human tenascin-R rCd4-His-FBG (rat; human, UniProt P05540 207-392, limits assumed); experiment: SPR, captured Fab, 25 C
T5 construct: domain: domains 3 and 4; C-terminal FBG fusion; also called Hu TNR; human TNR rCd4-His-FBG; not shown: 6His tag
T5 sequence (chain (part 1 of 2)): T1 sequence (chain (part 1 of 2))
T5 sequence (chain (part 2 of 2)): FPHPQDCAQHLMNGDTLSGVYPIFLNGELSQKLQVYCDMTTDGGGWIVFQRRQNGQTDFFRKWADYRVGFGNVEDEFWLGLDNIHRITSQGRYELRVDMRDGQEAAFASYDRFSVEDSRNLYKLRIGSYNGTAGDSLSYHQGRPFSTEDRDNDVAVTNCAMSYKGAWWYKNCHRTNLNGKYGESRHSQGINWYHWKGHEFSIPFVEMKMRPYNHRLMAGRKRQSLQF
Experimental: as §1

[6] = target: T3, mouse tenascin-C rCd4-His-FBG; experiment: SPR steady state, captured Fab, 25 C
Experimental: as §1

[7] = target: T5, human tenascin-R rCd4-His-FBG; experiment: SPR steady state, captured Fab, 25 C
Experimental: as §1

Human FGB-rCd4 = target: T6, Human FGB-rCd4; experiment: ELISA (DELFIA), antigen coated on the well, purified Fab at 50 nM, detected with anti-kappa or anti-lambda mAb and Europium-conjugated anti-mouse mAb
T6 construct: Not the same construct as m1, which has the FBG at the C terminus; also called human TNC FBG-rCD4; human tenascin-C FBG-rCd4-His (FBG at the N terminus of the rat Cd4 tag); not shown: rat Cd4 (domains 3 and 4) tag, the C-terminal His6 tag and the vector-derived junction residues of pBIOCAM4
T6 chain: T1 sequence (chain (part 2 of 2))

[8] = target: T3, mouse tenascin-C rCd4-His-FBG; experiment: SPR, parental antibody
[9] = target: T1, human tenascin-C rCd4-His-FBG; experiment: SPR, 25 C; format not stated; SPR at 25 C
[10] = target: T1, human tenascin-C rCd4-His-FBG; experiment: SPR, captured purified IgG4, 37 C
Experimental: (§2) Detailed kinetic parameters were evaluated for the 9 prioritised IgG4 antibodies. Binding characteristics were determined for interaction with human, rat and dog TNC rCD4-His-FBG, and human TNR rCD4-His-FBG. Kinetic assays followed essentially the same protocols as for the off-rate determinations described above, with some modifications as follows. […] Purified anti-FBG IgG4 was diluted to a concentration of 3.5 nM in PBS, pH 7.4, 0.05% Tween-20 and injected into FC2 at a flow rate of 10 μl/min, 60 s contact time. […] Antigens were prepared by doubling dilution in PBS, pH 7.4, 0.05% Tween-20 (highest concentration 100 nM except mouse rCD4-His-FBG which was 7 nM). Assays were performed at 37° C. (30 μl/min, 120 s contact time; mouse rCD4-His-FBGFBG 10 μl/min, 60 s contact time), with both the flow cell and injection chamber equilibrated to this temperature. As before, kinetic parameters were determined by reference cell subtraction and fitting the sensogram experimental data assuming a 1:1 interaction using BIAevaluation software (GE, BR-1005-97).

[11] = target: T3, mouse tenascin-C rCd4-His-FBG; experiment: SPR, captured purified IgG4, 37 C
Experimental: as §2

human His-FBG = target: T7, human His-FBG (human, UniProt P24821 1974-2201); experiment: SPR, captured IgG4, 25 C, mean of 3
T7 construct: non-citrullinated control, incubated in deimination buffer without PAD enzyme; also called unmodified His-FBG; not shown: His tag
T7 sequence: T1 sequence (chain (part 2 of 2))
Experimental: (§3) Purified human His-FBG was citrullinated using either peptidylarginine deiminase 2 (PAD2; MQ-16.201-2.5, Modiquest, NL) or peptidylarginine deiminase 4 (PAD4; MQ-16.203-2.5, Modiquest, NL) according to the supplier's instructions. […] Aliquots of His-FBG in deimination buffer were incubated for 2 h at 37° C. in the absence of added PAD enzyme, for use as non-citrullinated control protein. Citrullinated and unmodified His-FBG proteins were used in SPR experiments as described below.
(§4) SPR experiments were performed on a BIAcore 3000 instrument. Anti-human IgG (GE Healthcare) was covalently coupled to the surface of a CM5 sensor chip using amino coupling chemistry. […] The flow rate was 5 μl/min in the immobilization experiments and 20 μl/min for kinetic analyses. The sensor chip surface was regenerated using 3 M MgCl₂. Data were analysed using BIAevaluation program 4.1 (GE Healthcare).

[12] = target: T8, human His-FBG citrullinated with PAD2 (human, UniProt P24821 1974-2201, arginines citrullinated by peptidylarginine deiminase 2; positions not stated); experiment: SPR, captured IgG4, 25 C, mean of 3
T8 construct: also called His-FBG + PAD2; citrullinated His-FBG; not shown: His tag
T8 sequence: T1 sequence (chain (part 2 of 2))
Experimental: as §3, §4

[13] = target: T9, human His-FBG citrullinated with PAD4 (human, UniProt P24821 1974-2201, arginines citrullinated by peptidylarginine deiminase 4; positions not stated); experiment: SPR, captured IgG4, 25 C, mean of 3
T9 construct: also called His-FBG + PAD4; citrullinated His-FBG; not shown: His tag
T9 sequence: T1 sequence (chain (part 2 of 2))
Experimental: as §3, §4

[14] = target: T1, human tenascin-C rCd4-His-FBG; experiment: SPR off-rate screen, captured IgG4 supernatant, 25 C
Method in brief: (§5)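 SPR at 25 °C: IgG4 (S241P) from culture supernatant, diluted 1:2 in 2×PBS-T, captured on anti-human Fc surface; antigen injected at a fixed 15 nM (human and mouse TNC rCd4-His-FBG) or 100 nM (human TNR rCd4-His-FBG), 30 μl/min. Association 1 min, dissociation 5 min; off-rates from reference-subtracted 1:1 fits.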

[15] = target: T3, mouse tenascin-C rCd4-His-FBG; experiment: as above
Method in brief: as §5

[16] = target: T5, human tenascin-R rCd4-His-FBG; experiment: SPR off-rate screen, captured IgG4 supernatant, 25 C; SPR off-rate screen, native antigen at 100 nM, IgG4 in supernatant, 25 C
Experimental: The 31 scFv of interest were sub-cloned into a human IgG4 expression vector for generation of antibodies as human IgG4 with a hinge-stabilising mutation (S241P; Angal et al, 1993). […] Briefly, surface plasmon resonance (SPR) experiments were performed using a BIAcore T100 instrument and followed the protocol according to the Human antibody capture kit protocol (GE, BR-1008-39). For off-rate screening, 10,000 response units (RU) of anti-human Fc IgG (GE, BR-1008-39) was immobilised on flow-cells (FC1 and FC2) of a Series 5 CM5 dextran sensor chip (BR-1005-30) using EDC/NHS cross-linking chemistry according to the amine coupling kit protocol (GE, BR-1000-50). Culture supernatants containing expressed IgG4 were diluted 1:2 with 2×PBS-T and injected into FC2 (flowrate 5 μl/min, 60 s contact time) to enable antibody capture at 25° C. […] A fixed concentration of antigen (15 nM of human and mouse TNC rCd4-His-FBG and 100 nM of human TNR rCd4-His-FBG) was injected with a flow-path via FC 1 (reference flow cell) and FC 2 (antibody capture flow cell), with a flow rate of 30 μl/min, and the association and dissociation phases measured over 1 and 5 min time periods, respectively. […] Off rates were determined by reference cell subtraction and fitting the sensogram experimental data assuming a 1:1 interaction using BIAevaluation software (GE, BR-1005-97).

B1: Fab B12 (Fab, V domains shown)
VH: QVQLVESGGGLVQPGRSLRLSCAASGFTFDDYAMHWVRQAPGKGLEWVSGISGSGGSTYYADSVKGRFTISRDNAKNSLYLQMNSLRAEDTALYYCAKDISAVPDTFDIWGQGTMVTVSS
VL: DIQMTQSPASLPTPVGDRVTITCRASQYIQGFLNWYQQKPGKAPKLLIYDASNLETGVPSRFSGSGSGTDFTLTISSLQPEDFATYYCQQSYSTPQTFGQGTKVDIKR
notes: monomeric Fab
For B1, the “fold stronger affinity than 2A5” value [1] was about 100 fold, the “IC50, inhibition of Fc-His-HuFBG-evoked IL-8 release, THP1-Blue cells” value (human Fc-His-FBG) was 6.9 nM and the “IC50, inhibition of Fc-His-HuFBG-evoked alkaline phosphatase, THP1-Blue cells” value (human Fc-His-FBG) was 1.7 nM. For the same binder, the Kd [2] was 0.111 nM, the koff [2] was 0.0003 s⁻¹ and the kon [2] was 2.66e+06 M⁻¹ s⁻¹. It also gave a Kd [3] of 13 nM, a koff [3] of 0.0675 s⁻¹ and a kon [3] of 5.22e+06 M⁻¹ s⁻¹. It also gave a Kd [4] of 7.9 nM, a koff [4] of 0.0748 s⁻¹ and a kon [4] of 9.46e+06 M⁻¹ s⁻¹. For the same binder, the Kd [5] was 33.9 nM, the koff [5] was 0.0473 s⁻¹ and the kon [5] was 1.4e+06 M⁻¹ s⁻¹. For the same binder, the Kd [6] was 18.7 nM, the Kd [7] was 36.1 nM and the binding result (Human FGB-rCd4) was “binds”.

B2: Fab 2A5 (Fab, V domains shown)
VH: EVRLVQSGAEVKKPGASVKVSCKVSGYTLTELSMHWVRQAPGKGLEWMGGFDPEDGETIYAQKFQGRVTMTEDTSTDTAYMELSSLRSEDTAVYYCATAQKETYALTYWGQGTLVTVSS
VL: B1 VL with P14S, K45R, D50A, N53T, E55Q, T56D, S67Y, Q96W, D105E
notes: monomeric Fab
In the case of B2, the “fold difference in affinity between human and mouse rCd4-his-FBG” value [8] is reported as 6.9 fold, the “IC50, inhibition of Fc-His-HuFBG-evoked IL-8 release, THP1-Blue cells” value (human Fc-His-FBG) is reported as 28.5 nM and the “IC50, inhibition of Fc-His-HuFBG-evoked alkaline phosphatase, THP1-Blue cells” value (human Fc-His-FBG) is reported as 20.6 nM. It also gave a Kd [2] of 11.4 nM, a koff [2] of 0.00563 s⁻¹ and a kon [2] of 496000 M⁻¹ s⁻¹. The Kd [3] was 78.6 nM, the koff [3] was 0.0347 s⁻¹ and the kon [3] was 441000 M⁻¹ s⁻¹. For the same binder, the Kd [9] was 15 nM and the binding result (Human FGB-rCd4) was “binds”.

B3: B12 human IgG4 (antibody, V domains shown)
VH: B1 VH
VL: B1 VL
notes: human IgG4 with hinge S241P; also called B12 parent; B12-hIgG4
Binder B3 has a Kd [10] of 0.24 nM, a koff [10] of 0.00112 s⁻¹ and a kon [10] of 4.71e+06 M⁻¹ s⁻¹. For the same binder, the Kd [11] was 4.5 nM, the koff [11] was 0.00138 s⁻¹ and the kon [11] was 300000 M⁻¹ s⁻¹. It also gave a Kd (human His-FBG) of 0.17 nM, a koff (human His-FBG) of 0.00068 s⁻¹ and a kon (human His-FBG) of 4.1e+06 M⁻¹ s⁻¹. The Kd [12] was 0.32 nM, the koff [12] was 0.00096 s⁻¹ and the kon [12] was 3e+06 M⁻¹ s⁻¹. For the same binder, the Kd [13] was 0.32 nM, the koff [13] was 0.00078 s⁻¹ and the kon [13] was 2.6e+06 M⁻¹ s⁻¹. It also gave a koff [14] of 0.00015 s⁻¹, a koff [15] of 0.03 s⁻¹ and a koff [16] of 0.1 s⁻¹.

— patent US20170306005A1 (NASCIENT, published 2017)
